Test results published in US20170189524A1 (IMMUNOQURE, published 2017).
Changes are numbered by the printed parent chain.

T1: corresponding 18mer peptide derived from mouse IL-20 (differs from the human IL-20 101-118-peptide at Y104H … (mouse))
T1 construct: also called corresponding peptide derived from mouse IL-20
T1 peptide: PDHHTLRKISSLANSFLI

T2: g1 IL-20 (fusion protein of human IL-20 with Gaussia luciferase at the IL-20 N-terminus) (human, UniProt Q9NYY1 25-176)
T2 construct: also called IL-20-Gaussia luciferase fusion protein; GLuc-IL-20; not shown: Gaussia luciferase (pGaussia1 vector)
T2 sequence (looked up): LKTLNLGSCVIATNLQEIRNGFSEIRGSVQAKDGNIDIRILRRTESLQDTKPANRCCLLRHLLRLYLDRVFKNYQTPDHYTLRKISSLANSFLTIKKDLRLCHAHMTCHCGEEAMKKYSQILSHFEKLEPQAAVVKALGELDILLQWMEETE

T3: g2 IL-20 (fusion protein of human IL-20 fused C-terminally to Gaussia luciferase) (human, UniProt Q9NYY1 25-176)
T3 construct: order of the parts inferred from 'fused; C-terminally (g2 IL-20) to Gaussia luciferase'; the wording is ambiguous; also called GLuc-IL-20; not shown: Gaussia luciferase
T3 sequence (looked up): T2 sequence (looked up)

T4: peptide 19 of human IL-20, NYQTPDHYTLRKISSLAN (human)
T4 construct: spotted on a glass microarray through a hydrophilic linker
T4 peptide: NYQTPDHYTLRKISSLAN

T5: peptide 20 of human IL-20, 101-PDHYTLRKISSLANSFLT-118 (human)
T5 construct: spotted on a glass microarray through a hydrophilic linker; also called human IL-20 101-118-peptide
T5 peptide: PDHYTLRKISSLANSFLT

T6: Type I IL-20 receptor (IL-20RA/IL-20RB) on transfected HEK 293T MSR cells (human, UniProt Q9UHF4 30-553; Q6UXL0 30-311)
T6 construct: whole, on cells; also called IL-20 receptor Type I; IL20RA-Myc-DDK and IL20RB-Myc-DDK; not shown: Myc-DDK tag
T6 sequence (looked up) 1: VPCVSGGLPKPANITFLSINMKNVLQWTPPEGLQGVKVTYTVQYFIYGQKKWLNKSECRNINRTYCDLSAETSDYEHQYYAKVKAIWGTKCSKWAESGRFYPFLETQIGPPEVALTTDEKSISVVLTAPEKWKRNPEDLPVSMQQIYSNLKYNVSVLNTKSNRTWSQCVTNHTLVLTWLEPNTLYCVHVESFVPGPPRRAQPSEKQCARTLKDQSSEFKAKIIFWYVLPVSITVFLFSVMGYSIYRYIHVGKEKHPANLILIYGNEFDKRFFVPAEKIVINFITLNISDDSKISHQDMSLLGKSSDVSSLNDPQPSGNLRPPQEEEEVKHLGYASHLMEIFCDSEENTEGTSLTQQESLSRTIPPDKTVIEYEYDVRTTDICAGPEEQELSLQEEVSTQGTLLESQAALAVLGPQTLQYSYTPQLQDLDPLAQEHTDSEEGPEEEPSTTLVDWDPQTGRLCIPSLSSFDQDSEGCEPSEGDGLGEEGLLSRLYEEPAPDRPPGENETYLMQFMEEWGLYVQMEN
T6 sequence (looked up) 2: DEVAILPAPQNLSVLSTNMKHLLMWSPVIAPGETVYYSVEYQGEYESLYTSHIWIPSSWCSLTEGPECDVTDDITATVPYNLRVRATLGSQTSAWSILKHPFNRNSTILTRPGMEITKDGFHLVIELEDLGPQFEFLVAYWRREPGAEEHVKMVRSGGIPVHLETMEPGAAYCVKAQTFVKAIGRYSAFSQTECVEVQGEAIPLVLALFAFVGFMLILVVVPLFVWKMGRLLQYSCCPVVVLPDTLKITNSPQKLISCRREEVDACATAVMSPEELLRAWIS

B1: antibody 20A10 (antibody, human IgG4, kappa, V domains shown)
VH: QVQLVQSGAEVKKPGSSVKVSCKTSGGTFSTSTLSWVRQAPGQGLEWLGGMIPILSRTTYAQKFQGRLTITADEPTSTSYMELSSLKSEDTAVYYCATEGEVSAAHNYYYGMDVWGQGTTVTVSS
VL: DIVLTQSPLYLPVTPGEPASISCRSSQSLLHGNGHNYLDWYLQKPGQSPQLLIYLGSNRASGVPDRFSGSGSGTDFTLKISRVEAEDVGVYYCMQTLHTVFTFGPGTRVDIKR
notes: Recombinant human-derived antibody; also called MAb 20A10; 20A0
B2: antibody 2A11 (antibody, IgG1, V domains shown)
VH: QVHLVQSGAEVKKPGSSVKVSCKASGGTFNNFPMSWVRQAPGRGLEWMAGIIPVFGSANYAQQFHGRVTISADISTSTVSMELNDLKSEDTGVYYCAISGDEDNWIMNFWGQGTLVTVSS
VL: QSLLTQPPSVSGAPGQRVTISCTGSSSNIGAGYDVHWYQQVPGTAPKLLIYGNRNRPSGVPDRFSGSKSGTSASLAITGLQAEDEADYYCQSYDSSLSGHAVFGGGTKVTVLR
notes: IgG1, lambda; also called MAb 2A11
B3: antibody 26B9 (soluble) (antibody, human IgG1, kappa, V domains shown)
VH: QILLQESGPGLVKPTETLSLTCSVSGDSISDSSHYWAWIRQPPGKGPEWIGSVYFSSMTHYNPSLKSRVSISVDKPKNQFSLKVTSVTVADTATYYCARQALARVGAMNWFDPWGQGSLVTVSS
VL: DIIMTQSPDSLPVSLGEGVTINCKSSQSVFFTSSNKSCLAWYQQKPGKSPKLLIYWASTRQSGVPDRFRGSGSGTDFSLTITSLQAEDVAVYFCQQCQTSPPTFGGGTRLEIKR
notes: IgG1, kappa; also called soluble 26B9
B4: antibody 31B4 (antibody, human IgG1, kappa, V domains shown)
VH: B3 VH with L3Q, K13R, D31Q, K66T, V73I, P76A, K77M, Q79K
VL: DIIMTQSPESLPVSLGEGVTINCKSSQSVFFTSSNRSCLAWYQQKPGQSPKLLIYWASTRQSGVPDRFTGSGSGTDFSLTIAGLQVEDVAVYFCQQCHASPPTFGGGTRLELRR
notes: IgG1, kappa; clonally related to 26B9
B5: antibody 6E11 (antibody, IgG1, V domains shown)
VH: QVQLVQSGAEVKKPGSSVKVSCKASGGTFRNYAINWVRQAPRQGLEWMGSLVPMFTSPTYAQKFRGRVTISADESTATSSMELTSLTSEDTAVYFCSADGYKGGLFYGMNVWGQGTTVTVSS
VL: DIVLTQSPESLAVSLGERATINCKSSQSVLYSSNSKNYLAWFQQKPGQPPKLLIYWASTRESGVPDRFSGSGSGTDFTLTITSLQAEDVAVYYCHQYHTLPRTFGHGTKVEIKR
notes: IgG1; also called MAb 6E11
B6: antibody 7D1 (antibody, human IgG1, lambda, V domains shown)
VH: EVQLVASGGDFIQPGRSLRLSCAASGFKFDDYAMFWVRQVPGRGLEWVSGISWSSDKMAYVDSVKGRFTISRDNAKNTLYLQMNNLRPDDTAFYYCAKGGFSSVWNYFDFWGQGTLVTVSS
VL: QSVLTQPPSASGTPGQTVIISCSGTTSNIGSNTVSWYRQLPGAAPKLLIFTYNQRPSGVPDRFSGSKSGTSASLAISGLQSDDEADYYCAVWDDALGGWVFGGGTKLTVLG
notes: IgG1, lambda; also called MAb 7D1
B7: recombinant human IL-20 (ligand, UniProt Q9NYY1 25-176, looked up)
chain: T2 sequence (looked up)
notes: also called rhIL-20; hIL-20
B8: recombinant mouse IL-20 (ligand, UniProt Q9JKV9 25-176, looked up)
chain: LKTLHLGSCVITANLQAIQKEFSEIRDSVQAEDTNIDIRILRTTESLKDIKSLDRCCFLRHLVRFYLDRVFKVYQTPDHHTLRKISSLANSFLIIKKDLSVCHSHMACHCGEEAMEKYNQILSHFIELELQAAVVKALGELGILLRWMEEML
notes: also called rmIL-20; murine IL-20

How the values were obtained:
[1] = biological target: T1, corresponding 18mer peptide derived …; test: 18mer peptide microarray of murine IL-20
[2] = biological target: T2, g1 IL-20 (fusion protein of human IL-20 …); test: GLuc-sandwich ELISA, fusion protein captured by anti-GLuc antibody, serial dilution of MAB
[3] = biological target: T3, g2 IL-20 (fusion protein of human IL-20 …); test: as above
[4] = biological target: T4, peptide 19 of human IL-20, …; test: 18mer peptide microarray of human IL-20
[5] = biological target: T2, g1 IL-20 (fusion protein of human IL-20 …); test: chemiluminescent cell-binding assay (FIG. 8D): inhibition of g1 IL-20 binding to HEK 293T MSR cells expressing IL-20 receptor; receptor type for this value not stated
recombinant mouse IL-20 [6] = biological target: B8; test: cell-based or functional assay
recombinant human IL-20 = biological target: B7; test: cell-based or functional assay
[7] = biological target: T5, peptide 20 of human IL-20, …; test: 18mer peptide microarray of human IL-20, Cy5 anti-human IgG detection
[8] = biological target: T7, g1 IFNW (fusion protein of human IFNW with Gaussia luciferase) (human, UniProt P05000 22-195); test: LCBA cross-competition, g1 IFNW preincubated with soluble antibody (FIG. 18)
T7 construct: also called IFNW-Gaussia luciferase; human IFNW-Gaussia luciferase fusion protein; not shown: Gaussia luciferase

recombinant mouse IL-20 [9] = biological target: B8; test: competition GLuc-sandwich ELISA: soluble mouse IL-20 titrated against antibody 1 µg/ml on captured g2 IL-20
[10] = biological target: T2, g1 IL-20 (fusion protein of human IL-20 …); test: GLuc-sandwich ELISA
[11] = biological target: T6, Type I IL-20 receptor (IL-20RA/IL-20RB) …; test: LCBA, competition with g1 IL-20 on cells expressing Type I IL-20 receptor
[12] = biological target: T6, Type I IL-20 receptor (IL-20RA/IL-20RB) …; test: LCBA, competition with g1 IL-20 (FIG. 7E)

T7 sequence (P05000 22-195): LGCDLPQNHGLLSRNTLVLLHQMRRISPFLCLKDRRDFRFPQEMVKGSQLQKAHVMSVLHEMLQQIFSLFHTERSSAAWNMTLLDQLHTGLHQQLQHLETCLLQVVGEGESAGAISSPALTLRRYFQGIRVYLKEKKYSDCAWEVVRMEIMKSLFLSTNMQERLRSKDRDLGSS

With B1 the binding result [1] was “no binding”, the EC50 [2] was 0.0186 µg/mL and the EC50 [3] was 0.021 µg/mL. The binding result [4] was “no binding”, the IC50 [5] was 0.00403 µg/mL and the “IC 50 in the pSTAT3 Western blot assay (25 ng/ml rmIL-20, Type I IL-20 receptor)” value (recombinant mouse IL-20 [6]) was 1870 ng/ml. The “IC 50 in the KZ136-NLuc reporter assay” value (recombinant human IL-20) was 0.33 µg/mL and the binding result [7] was “binds”.

Binder B2 has an EC50 [2] of 0.0098 µg/mL and an EC50 [3] of 0.0065 µg/mL.

B3: binds [8].

B4: binds [8].

With B5 the EC50 [2] was 0.128 µg/mL, the EC50 [3] was 0.347 µg/mL and the binding result (recombinant mouse IL-20 [9]) was “no binding (tested: 10 µg/ml to 4.6 ng/ml)”.

With B6 the EC50 [2] was 5.87 µg/mL, the EC50 [3] was 0.0271 µg/mL and the EC50 [10] was > 5 µg/mL.

B7: binds [11].

B8: binds [12].
